Laboratory results as given in the supplement of paper PMC7877785.
± gives the uncertainty stated by the source.

Experiment: self-splicing fitness, log relative to wild type (ln ratio); higher = more splicing; Tetrahymena group I intron in knt gene, E. coli kanamycin selection, DiMSum; sequences stand for … in CUCUCU…GGAGGGAAAAGUUAUCAGGCAUGCACCUGGUAGCUAGUCUUUAAACCAAUAGAUUGCAUCGGUUUAAAAGGCAAGACCGUCAAAUUGCGGGAAAGGGGUCAACAGCCGUUCAGUACCAAGUCUCAGGGGAAACUUUGAGAUGGCCUUGCAAAGGGUAUGGUAAUAAGCUGACGGACAUGGUCCUAACCACGCAGCCAAGUCCUAAGUCAACAGAUCUUCUGUUGAUAUGGAUGCAGUUCACAGACUAAAUGUCGGUCGGGGAAGAUGUAUUCUUCUCAUAAGAUAUAGUCGGACCUCUCCUUAAUGGGAGCUAGCGGAUGAAGUGAUGCAACACUGGAGCCGCUGGGAACUAAUUUGUAUGCGAAAGUAUAUUGAUUAGUUUUGGAGUACUCGUGGUCG
Method in brief: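 Pooled colonies went to amplicon sequencing on an Illumina HiSeq 2500 after six replicate transformations. The plates were LB agar with 100 μg/mL carbenicillin, 50 μM IPTG and 0.2% rhamnose, with or without 25 μg/mL kanamycin, incubated overnight at 37°C or 30°C. The E. coli BL21(DE3) library had all eight P1ex-region intron nucleotides randomised, the intron placed in the knt kanamycin-resistance gene on pET-22b(+). DiMSum fitness is the error-weighted combination of replicate fold changes, kanamycin against none, normalised to wild type.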

Sequence | self-splicing fitness (ln) (30 °C) | self-splicing fitness (ln) (37 °C)
CAUUAGCAAUAUUACGUUCG | 0.151 ± 0.084 | 0.359 ± 0.093
CAUUAGCAAUAUUACGUUUA | -1.42 ± 0.15 | -1.48 ± 0.15
CCAAAGCAAUAUUACGACAG | -0.638 ± 0.066 | -0.249 ± 0.089
CCAAAGCAAUAUUACGAGCG | -0.496 ± 0.069 | -0.161 ± 0.1
CCAAAGCAAUAUUACGCAAG | -1.83 ± 0.12 | -1.52 ± 0.14
CCAAAGCAAUAUUACGCCCC | – | -0.985 ± 0.44
CCAAAGCAAUAUUACGCCCG | -0.324 ± 0.15 | 0.862 ± 0.18
CCAAAGCAAUAUUACGCCGU | -3.25 ± 0.29 | -3.3 ± 0.35
CCAAAGCAAUAUUACGCUUC | -3.37 ± 0.18 | -2.48 ± 0.18
CCAAAGCAAUAUUACGGAGU | -2.7 ± 0.13 | -2.35 ± 0.2
CCAAAGCAAUAUUACGGCGU | -3.49 ± 0.12 | -2.62 ± 0.14
CCAAAGCAAUAUUACGGGAC | -4.28 ± 0.3 | -3.32 ± 0.46
CCAAAGCAAUAUUACGGGCG | -1.31 ± 0.065 | -0.301 ± 0.094
CCAAAGCAAUAUUACGGGGC | -3.09 ± 0.19 | -2.93 ± 0.27
CCAAAGCAAUAUUACGGGGG | -3.14 ± 0.18 | -1.5 ± 0.16
CCAAAGCAAUAUUACGGUCC | -4.23 ± 0.46 | -2.13 ± 0.3
CCAAAGCAAUAUUACGGUGG | -4.1 ± 0.19 | -1.76 ± 0.16
CCAAAGCAAUAUUACGUACA | -3.73 ± 0.23 | -3.32 ± 0.28
CCAAAGCAAUAUUACGUGAA | -4.04 ± 0.17 | -3.18 ± 0.27
CCAAAGCAAUAUUACGUGGU | -3.39 ± 0.098 | -3.29 ± 0.14
CCAAAGCAAUAUUACGUUAU | -3.2 ± 0.13 | -2.68 ± 0.15
CCACAGCAAUAUUACGAAAA | -3.8 ± 0.27 | -2.58 ± 0.22
CCACAGCAAUAUUACGAGAC | -3.7 ± 0.2 | -3.01 ± 0.23
CCACAGCAAUAUUACGAGUG | -1.31 ± 0.057 | 0.0708 ± 0.062
CCACAGCAAUAUUACGAUAA | -3.11 ± 0.25 | -2.75 ± 0.32
CCACAGCAAUAUUACGCAAG | -1.34 ± 0.064 | -0.406 ± 0.072

Sequence | self-splicing fitness (ln) (30 °C) | self-splicing fitness (ln) (37 °C)
CCACAGCAAUAUUACGCGAG | -1.27 ± 0.076 | -0.902 ± 0.083
CCACAGCAAUAUUACGCGCU | -4.48 ± 0.23 | -2.26 ± 0.15
CCACAGCAAUAUUACGCUAU | -3.61 ± 0.26 | -3.12 ± 0.25
CCACAGCAAUAUUACGGAAC | -3.75 ± 0.24 | -2.47 ± 0.23
CCACAGCAAUAUUACGGAUA | -2.27 ± 0.12 | -2.68 ± 0.18
CCACAGCAAUAUUACGGGAA | -3.4 ± 0.15 | -3.01 ± 0.2
CCACAGCAAUAUUACGGGAC | -3.78 ± 0.33 | -2.26 ± 0.2
CCACAGCAAUAUUACGGGGC | -3.95 ± 0.14 | -2.43 ± 0.16
CCACAGCAAUAUUACGUAAG | -0.731 ± 0.038 | 0.388 ± 0.061
CCACAGCAAUAUUACGUAUC | -2.59 ± 0.16 | -2 ± 0.22
CCACAGCAAUAUUACGUCGG | -3.14 ± 0.12 | -1.95 ± 0.18
CCACAGCAAUAUUACGUGGA | -3.7 ± 0.16 | -3.16 ± 0.16
CCACAGCAAUAUUACGUGUG | -3.61 ± 0.095 | -2.36 ± 0.092
CCACAGCAAUAUUACGUUAU | -4.08 ± 0.15 | -2.66 ± 0.16
CCAGAGCAAUAUUACGAAAG | -2.45 ± 0.2 | -1.47 ± 0.17
CCAGAGCAAUAUUACGAACU | -3.13 ± 0.35 | -1.86 ± 0.35
CCAGAGCAAUAUUACGACGC | -4.17 ± 0.34 | -2.11 ± 0.28
CCAGAGCAAUAUUACGAGCA | -5.29 ± 0.41 | -2.32 ± 0.19
CCAGAGCAAUAUUACGCCGU | -4.04 ± 0.48 | –
CCAGAGCAAUAUUACGCGAU | – | -2.21 ± 0.33
CCAGAGCAAUAUUACGGCAA | -2.25 ± 0.38 | -2.28 ± 0.3
CCAGAGCAAUAUUACGGUAA | -2.75 ± 0.22 | -2.33 ± 0.26
CCAGAGCAAUAUUACGGUGA | -3.55 ± 0.2 | -2.6 ± 0.23
CCAGAGCAAUAUUACGUCAG | -2.58 ± 0.12 | -1.6 ± 0.15
CCAUAGCAAUAUUACGAAAA | -3.02 ± 0.29 | –
CCAUAGCAAUAUUACGAAUG | -2.11 ± 0.08 | -1.15 ± 0.095

Sequence | self-splicing fitness (ln) (30 °C) | self-splicing fitness (ln) (37 °C)
CCAUAGCAAUAUUACGACAA | -3.06 ± 0.41 | -2.94 ± 0.35
CCAUAGCAAUAUUACGAGCC | -4.57 ± 0.45 | -2.16 ± 0.36
CCAUAGCAAUAUUACGAUCC | -3.2 ± 0.35 | -1.43 ± 0.41
CCAUAGCAAUAUUACGAUUC | -3.64 ± 0.25 | -2.89 ± 0.41
CCAUAGCAAUAUUACGCAUC | -3.39 ± 0.27 | -2.31 ± 0.3
CCAUAGCAAUAUUACGCCAA | -2.76 ± 0.43 | -1.58 ± 0.25
CCAUAGCAAUAUUACGCGAU | -2.56 ± 0.27 | -2.91 ± 0.43
CCAUAGCAAUAUUACGCGGC | -4.01 ± 0.35 | -2.87 ± 0.43
CCAUAGCAAUAUUACGCGUC | -3.04 ± 0.33 | -4.21 ± 0.46
CCAUAGCAAUAUUACGCUAA | -3.38 ± 0.22 | -2.75 ± 0.32
CCAUAGCAAUAUUACGCUAG | -3.8 ± 0.47 | -1.82 ± 0.23
CCAUAGCAAUAUUACGCUCC | -2.97 ± 0.49 | –
CCAUAGCAAUAUUACGGCAA | -3.37 ± 0.28 | -2.9 ± 0.3
CCAUAGCAAUAUUACGGCGA | -2.03 ± 0.26 | -1.92 ± 0.23
CCAUAGCAAUAUUACGGCUU | -3.97 ± 0.31 | -2.19 ± 0.2
CCAUAGCAAUAUUACGGGAU | -3.65 ± 0.23 | -2.86 ± 0.24
CCAUAGCAAUAUUACGGUUG | -1.43 ± 0.082 | -0.827 ± 0.12
CCAUAGCAAUAUUACGUAUU | -3.88 ± 0.19 | -2.64 ± 0.21
CCAUAGCAAUAUUACGUGCA | -2.77 ± 0.19 | -3.02 ± 0.24
CCAUAGCAAUAUUACGUUCG | -0.579 ± 0.08 | -0.674 ± 0.1
CCCAAGCAAUAUUACGAAAA | -2.96 ± 0.21 | -2.1 ± 0.22
CCCAAGCAAUAUUACGAAAU | -3.19 ± 0.25 | -2.35 ± 0.18
CCCAAGCAAUAUUACGAACG | -3.72 ± 0.25 | -3.46 ± 0.2
CCCAAGCAAUAUUACGAAUC | -2.81 ± 0.24 | -2.36 ± 0.27
